According to paper PMC11965310, “Inhibition of tau neuronal internalization using anti-tau single domain antibodies” (Nature Communications, 2025):

Tests used:
Settings in all cases: both partners purified
tau2N4R = target: T1, tau2N4R (Homo sapiens, UniProt P10636-8, biotin (NHS-biotin, 3 molar excess) when immobilised in SPR; 15N-labelled in NMR); test: SPR; biotinylated tau2N4R, tau1N4R or tauMTBD captured on a streptavidin (SA) chip; VHHs without tag as analytes, 0.0625-4 μM, single-cycle kinetics; 25 °C, HBS EP+; 1:1 Langmuir model
T1 construct: tau protein, isoform 2N4R, the largest tau isoform; Expressed from pET15b-tau2N4R; also called full-length tau2N4R; largest tau isoform; source: E. coli BL21 (DE3), purified (heating at 75 °C, cation exchange)

tau1N4R = target: T2, tau1N4R (Homo sapiens, UniProt P10636-7, biotin (NHS-biotin, 3 molar excess) when immobilised in SPR; Alexa Fluor 546 C5-maleimide on its two native cysteine residues in the uptake assay); test: as above
T2 construct: tau protein, isoform 1N4R; Used without a stated label as analyte on LRP1 cluster III; also called full-length tau1N4R; monomeric tau1N4R; source: E. coli BL21 (DE3), purified (heating at 75 °C, cation exchange)

tauMTBD = target: T3, tauMTBD (Homo sapiens, UniProt P10636, biotin (NHS-biotin, ratio 1:0.5) when immobilised in SPR; Atto488 NHS ester in the uptake assay); test: as above
T3 construct: also called tauMTBD fragment; source: E. coli BL21 (DE3), purified (heating at 75 °C, cation exchange)

[1] = target: T4, tau[369–381] C-terminal peptide (Homo sapiens); test: SPR; biotinylated VHH-Cys captured on SA chip; tau[369-381] peptide as analyte, multi-cycle kinetics; 25 °C, HBS EP+; kinetic analysis, 1:1 Langmuir model
T4 construct: also called tau-C-ter peptide; tau-Cter peptide
T4 chain: KKIETHKLTFREN

[2] = target: T4, tau[369–381] C-terminal peptide; test: SPR; same data as the multi-cycle kinetics; steady-state analysis of maximum responses, one-site specific binding model
[3] = target: T4, tau[369–381] C-terminal peptide; test: as above
[4] = target: T4, tau[369–381] C-terminal peptide; test: SPR; biotinylated VHH-Cys captured on SA chip; tau[369-381] peptide as analyte, multi-cycle kinetics; 25 °C, HBS EP+; kinetic analysis, 1:1 Langmuir model
[5] = target: T4, tau[369–381] C-terminal peptide; test: AlphaScreen or HTRF; 6His-VHH bound by anti-6His antibody-Terbium (1.5 nM) and 6His-VHH bound by anti-6His antibody-D2 (20 nM); tau-Cter peptide 32 nM to 100 µM; 1 h at room temperature

T2 sequence (P10636 other isoform, or with tags, fused parts or gaps): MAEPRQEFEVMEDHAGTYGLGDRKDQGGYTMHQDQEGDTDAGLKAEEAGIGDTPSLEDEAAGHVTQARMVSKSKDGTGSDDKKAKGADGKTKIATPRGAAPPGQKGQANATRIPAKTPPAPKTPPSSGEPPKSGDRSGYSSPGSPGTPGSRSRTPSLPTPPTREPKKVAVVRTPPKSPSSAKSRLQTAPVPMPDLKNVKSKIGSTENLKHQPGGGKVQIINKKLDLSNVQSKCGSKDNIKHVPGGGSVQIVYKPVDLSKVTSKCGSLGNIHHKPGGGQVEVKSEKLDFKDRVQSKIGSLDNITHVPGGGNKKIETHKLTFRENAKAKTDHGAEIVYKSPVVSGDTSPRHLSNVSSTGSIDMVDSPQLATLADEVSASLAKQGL
T1 sequence (P10636 other isoform, or with tags, fused parts or gaps): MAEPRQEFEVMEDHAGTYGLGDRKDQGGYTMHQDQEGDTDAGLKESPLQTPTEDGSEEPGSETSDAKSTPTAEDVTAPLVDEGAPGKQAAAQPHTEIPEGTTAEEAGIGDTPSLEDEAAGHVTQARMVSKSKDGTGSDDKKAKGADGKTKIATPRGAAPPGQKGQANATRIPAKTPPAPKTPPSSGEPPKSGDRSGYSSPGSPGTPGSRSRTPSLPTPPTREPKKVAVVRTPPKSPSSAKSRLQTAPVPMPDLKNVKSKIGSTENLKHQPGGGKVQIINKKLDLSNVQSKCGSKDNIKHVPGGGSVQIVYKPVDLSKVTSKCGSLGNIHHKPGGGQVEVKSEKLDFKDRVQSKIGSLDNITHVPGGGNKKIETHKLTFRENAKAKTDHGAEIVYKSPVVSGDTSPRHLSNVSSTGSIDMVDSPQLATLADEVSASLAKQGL
T3 sequence (P10636 whole entry, looked up, the tested form may be a part): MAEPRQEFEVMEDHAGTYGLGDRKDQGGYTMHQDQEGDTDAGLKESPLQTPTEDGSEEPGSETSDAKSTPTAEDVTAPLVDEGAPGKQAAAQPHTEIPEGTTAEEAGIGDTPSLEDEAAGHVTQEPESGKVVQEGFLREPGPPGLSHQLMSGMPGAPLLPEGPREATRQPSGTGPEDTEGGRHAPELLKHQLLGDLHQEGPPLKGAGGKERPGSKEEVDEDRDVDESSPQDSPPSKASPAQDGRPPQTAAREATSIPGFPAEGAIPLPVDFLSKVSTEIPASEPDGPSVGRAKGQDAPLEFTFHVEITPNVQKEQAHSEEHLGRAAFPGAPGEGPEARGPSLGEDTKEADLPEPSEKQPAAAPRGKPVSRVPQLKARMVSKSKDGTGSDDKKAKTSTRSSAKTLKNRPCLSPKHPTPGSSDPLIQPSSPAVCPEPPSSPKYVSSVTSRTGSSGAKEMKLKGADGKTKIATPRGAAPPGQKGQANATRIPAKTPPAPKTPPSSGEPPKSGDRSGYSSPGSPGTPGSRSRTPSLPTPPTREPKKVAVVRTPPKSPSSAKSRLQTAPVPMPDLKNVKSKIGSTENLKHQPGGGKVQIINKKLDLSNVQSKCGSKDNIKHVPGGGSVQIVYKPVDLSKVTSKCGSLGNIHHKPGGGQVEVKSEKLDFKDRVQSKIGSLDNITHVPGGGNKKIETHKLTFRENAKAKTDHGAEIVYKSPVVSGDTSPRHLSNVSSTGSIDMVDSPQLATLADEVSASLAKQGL

B1: VHH F8-2 (VHH)
VHH: EVQLQASGGGFVQPGGSLRLSCAASGGTSYWDGMGWFRQAPGKEREFVSAISGRGNIGTYYADSVKGRFTISRDNSKNTVYLQMNSLRAEDTATYYCAAFRHEVHGSMRHEWEVIKYWGQGTQVTVSS
notes: source: E. coli periplasm, purified (IMAC, SEC, TEV cleavage, second IMAC); not shown: His6, N-terminal, cleaved
Binder B1 has a Kd (tau2N4R) of 753 nM, a koff (tau2N4R) of 0.04 s⁻¹ and a kon (tau2N4R) of 53100 M⁻¹ s⁻¹. For the same binder, the Kd (tau1N4R) was 740 nM, the koff (tau1N4R) was 0.0425 s⁻¹ and the kon (tau1N4R) was 57500 M⁻¹ s⁻¹.

B2: VHH E2-2 (VHH)
VHH: EVQLQASGGGFVQPGGSLRLSCAASGSTYDFDAMGWFRQAPGKEREFVSAISGDADLARYYADSVKGRFTISRDNSKNTVYLQMNSLRAEDTATYYCAAFRHEVHGSMRHEWEVIKYWGQGTQVTVSS
notes: From the Nali-H1 VHH library; source: E. coli periplasm, purified (IMAC, SEC, TEV cleavage, second IMAC); not shown: His6, N-terminal, cleaved
For B2, the binding result (tauMTBD) was “no binding (tested: 4 μM)”, the Kd (tau2N4R) was 84 nM and the koff (tau2N4R) was 0.0038 s⁻¹. The kon (tau2N4R) was 44900 M⁻¹ s⁻¹, the Kd (tau1N4R) was 96 nM and the koff (tau1N4R) was 0.0045 s⁻¹. The kon (tau1N4R) was 46700 M⁻¹ s⁻¹.

B3: biotinylated VHH E2-2 with a cysteine at the C-terminus (VHH)
VHH: B2 VHH
notes: as the VHH chain of m11; additional C-terminal cysteine; source: E. coli periplasm, purified (IMAC, SEC, TEV cleavage, second IMAC); not shown: His6, N-terminal, cleaved
In the case of B3, the Kd [1] is reported as 820 nM, the koff [1] is reported as 0.124 s⁻¹ and the kon [1] is reported as 154000 M⁻¹ s⁻¹. For the same binder, the Kd [2] was 578 nM, the “stoichiometry N” value [2] was 0.45 and the Kd [3] was 518 to 820 nM.

B4: VHH H3-2 (VHH)
VHH: EVQLQASGGGFVQPGGSLRLSCAASGYTSGDEIMGWFRQAPGKEREFVSAISWQSGTSTYYADSVKGRFTISRDNSKNTVYLQMNSLRAEDTATYYCAPMTLAETYYEWLISGYWGQGTQVTVSS
notes: From the Nali-H1 VHH library; Forms a swapped dimer in the crystal and mostly a dimer in SEC at 20 µM; Coupled to 10 nm gold beads for electron microscopy; source: E. coli periplasm, purified (IMAC, SEC, TEV cleavage, second IMAC); not shown: His6, N-terminal, cleaved
With B4 the binding result (tauMTBD) was “no binding (tested: 4 μM)”, the Kd (tau2N4R) was 8.9 nM and the koff (tau2N4R) was 0.0056 s⁻¹. It also gave a kon (tau2N4R) of 630000 M⁻¹ s⁻¹, a Kd (tau1N4R) of 11 nM and a koff (tau1N4R) of 0.006 s⁻¹. It also gave a kon (tau1N4R) of 554000 M⁻¹ s⁻¹.

B5: biotinylated VHH H3-2 with a cysteine at the C-terminus (VHH)
VHH: B4 VHH
notes: as the VHH chain of m8; additional C-terminal cysteine; source: E. coli periplasm, purified (IMAC, SEC, TEV cleavage, second IMAC); not shown: His6, N-terminal, cleaved
B5 showed a Kd [1] of 280 nM, a koff [1] of 0.071 s⁻¹ and a kon [1] of 192000 M⁻¹ s⁻¹. For the same binder, the Kd [2] was 297 nM, the “stoichiometry N” value [2] was 0.41 and the Kd [4] was 297 to 380 nM.

B6: 6His-VHH H3-2 (VHH)
VHH: B4 VHH
notes: as the VHH chain of m8; The construct has a TEV site between the 6-His tag and the VHH; also called 6Histag-H3-2; source: E. coli periplasm, purified; not shown: His6, N-terminal, kept
Binder B6 has an EC50 [5] of 2700 nM.
